The target of experiment [1] is T1, cation-dependent mannose 6-phosphate receptor (sCD-MPR) (Bos taurus, UniProt P11456, N59Q/N85Q/N96Q/N115Q).
T1 sequence (P11456 29-182 N59Q/N85Q/N96Q/N115Q): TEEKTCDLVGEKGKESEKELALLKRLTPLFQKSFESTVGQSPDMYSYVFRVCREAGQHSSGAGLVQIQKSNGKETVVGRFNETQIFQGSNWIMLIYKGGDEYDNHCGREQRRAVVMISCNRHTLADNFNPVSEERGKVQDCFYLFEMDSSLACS
Description: […]-1H HSQC NMR titration. The experiment is classed as binding.

In experiment [2] the target is β-glucuronidase (Homo sapiens) (UniProt P08236). The note with it: cited from earlier work.
Sequence of β-glucuronidase (Homo sapiens) (P08236 23-651): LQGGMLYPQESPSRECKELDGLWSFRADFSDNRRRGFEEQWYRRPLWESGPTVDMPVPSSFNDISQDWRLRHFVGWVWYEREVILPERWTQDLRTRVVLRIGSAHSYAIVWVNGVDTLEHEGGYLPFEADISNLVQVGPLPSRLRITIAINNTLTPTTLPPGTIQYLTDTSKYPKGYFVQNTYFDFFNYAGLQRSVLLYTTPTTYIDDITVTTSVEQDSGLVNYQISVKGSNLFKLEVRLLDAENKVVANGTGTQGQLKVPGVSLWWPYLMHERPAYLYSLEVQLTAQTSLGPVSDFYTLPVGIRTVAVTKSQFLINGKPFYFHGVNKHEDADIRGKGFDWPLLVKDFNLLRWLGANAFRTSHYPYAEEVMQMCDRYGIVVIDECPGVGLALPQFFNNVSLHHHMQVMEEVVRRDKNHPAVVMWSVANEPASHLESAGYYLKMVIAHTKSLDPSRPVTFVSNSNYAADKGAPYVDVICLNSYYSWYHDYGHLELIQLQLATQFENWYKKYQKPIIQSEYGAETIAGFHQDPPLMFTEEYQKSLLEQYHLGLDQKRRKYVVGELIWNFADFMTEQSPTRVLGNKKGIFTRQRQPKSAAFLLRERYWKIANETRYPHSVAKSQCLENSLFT
Experiment [3] has the same target. The note with it: cited from earlier work. The source holds these as a separate data set.
The target is the same in experiment [4]. The note with it: cited from earlier work. The source holds these as a separate data set.

Like-named read-outs stand apart in the source and are kept apart here.

Data on four compounds can be found in publication PMC2802658 (Biochemistry, 2010).

In the case of `O=P(O)(O)OC[C@H]1OC(O)[C@@H](O)[C@@H](O)[C@@H]1O` (stereo partly shown) [mannose 6-phosphate], the Kd in experiment [1] was about 1000 µM.

As for “cation-dependent mannose 6-phosphate receptor (from UniProt P11456)”, in experiment [2], the Kd was 0.00028 µM.

Turning to “cation-dependent mannose 6-phosphate receptor (sCD-MPR) ECD (from UniProt P11456)”, the Kd in experiment [3] is 0.0014 µM.

As to “cation-dependent mannose 6-phosphate receptor (sCD-MPRHis6) ECD (from UniProt P11456)”, the Kd in experiment [4] was 0.0015 µM.

As a reminder, the Kd is the constant that tells how readily two partners part at equilibrium.
